Source: PMC6528793 (Structure (London, England : 1993), 2017)

B1: AnkB C-terminal ankyrin domain (residues 54-168) (domain or fragment)
chain: HIKRELWGNLMVAARSNNLEEVKKILKKGIDPTQTNSYHLNRTPLLAAIEGKAYQTANYLWRKYTFDPNFKDNYGDSPISLLKKQLANPAFKDKEKKQIRALIRGMQEEKIAQSK

What was measured:
[1] = biological target: B1; experiment: NMR titration
[2] = biological target: the molecule itself; experiment: crystal structure

Binder | Kd [1] [mM] | binding result [2]
QEEKI [QEEKI pentapeptide derived from the AnkB C-terminus] | > 8 | 
B1 |  | binds
